Measurements as given in US20130086703.

Target: T1, human Keratin 17
T1 chain: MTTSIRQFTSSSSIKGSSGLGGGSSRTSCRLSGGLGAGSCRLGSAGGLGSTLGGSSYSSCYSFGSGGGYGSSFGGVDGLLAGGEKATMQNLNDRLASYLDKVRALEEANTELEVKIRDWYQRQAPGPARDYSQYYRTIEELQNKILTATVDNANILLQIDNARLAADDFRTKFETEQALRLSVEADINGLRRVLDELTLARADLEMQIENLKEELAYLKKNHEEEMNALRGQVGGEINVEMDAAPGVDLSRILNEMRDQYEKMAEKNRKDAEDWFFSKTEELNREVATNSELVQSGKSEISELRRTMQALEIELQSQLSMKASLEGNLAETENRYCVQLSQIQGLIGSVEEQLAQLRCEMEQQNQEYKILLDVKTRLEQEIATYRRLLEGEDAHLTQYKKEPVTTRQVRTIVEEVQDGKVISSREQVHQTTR

B1: RgpB (protein)
chain: YTPVEEKENGRMIVIVPKKYEEDIEDFVDWKNQRGLRTEVKVAEDIASPVTANAIQQFVKQEYEKEGNDLTYVLLVGDHKDIPAKITPGIKSDQVYGQIVGNDHYNEVFIGRFSCESKEDLKTQIDRTIHYERNITTEDKWLGQALCIASAEGGPSADNGESDIQHENIIANLLTQYGYTKIIKCYDPGVTPKNIIDAFNGGISLANYTGHGSETAWGTSHFGTTHVKQLTNSNQLPFIFDVACVNGDFLYNVPCFAEALMRAQKDGKPTGTVAIIASTINQSWASPMRGQDEMNEILCEKHPNNIKRTFGGVTMNGMFAMVEKYKKDGEKMLDTWTVFGDPSLLVRTLVPTKMQVTAPANISASAQTFEVACDYNGAIATLSDDGDMVGTAIVKDGKAIIKLNESIADETNLTLTVVGYNKVTVIKDVKVEG
enzymatic degradation products detected by mass spectrometry (on spot profiling): peptides consisting of the amino acid sequences shown by SEQ ID NOs: 6-10 (peptides 8-12) were newly identified as RgpB degradation products of human Keratin 17
